Results on two substances are retold here after patent publication US20230250461A1.

Assay [1] addresses IvaP from Vibrio cholerae, the alkaline serine protease corresponding to the gene VC 0157 (purified) (Vibrio cholerae). Description: solvatochromic dye fluorescence, plate reader; I9-dye conjugate 3 µM, IvaP 1 µM (FIG. 7A).
Assay [2] has the same target. As to the kind of experiment: solvatochromic dye fluorescence, multi-well plate reader; probe 3 µM, IvaP 1 µM preincubated with PMSF (FIG. 9B).
The target is the same in assay [3]. Description: cell-based or functional assay.

Regarding I9 I128C-IANBD conjugate (peptide), in assay [1], the relative fluorescence change (Fbound/Funbound) stood at 2 fold. In assay [2], this substance came in with an increase in fluorescence intensity of 2 fold.

On to I9 E123C-MDCC conjugate (peptide), for which, in assay [3], the decrease in fluorescence intensity worked out at 4 fold.
